The results in this text go back to patent US20200354692A1.

The experiment addresses NAD(P)+-dependent methanol dehydrogenase from Bacillus methanolicus MGA3 (Genbank EIJ77596.1, GI 387585261) (Bacillus methanolicus MGA3) (UniProt P31005). Briefly: cell-based or functional assay.

As to “activator protein from Bacillus methanolicus MGA3 (locus tag MGA3_09170, GI 387591061, Accession EIJ83380) (from UniProt Q8KP10 1-185) (enzyme)”, the ratio of "act" to methanol dehydrogenase (in vitro activation test with 5 M methanol, 2 mM NAD, 10 uM methanol dehydrogenase 2315A, pH 7.4) (ratio act : methanol dehydrogenase) was 10.
